Assay: PYO demethylation in the presence of DNA
Assay type: biochemical
Conditions: gDNA pellet, 2 μg mL^−1, 3 hours
Protocol: Biofilm experiments. For all experiments involving inactivated PodA, either the E154A mutant or PodA30-162 that was subjected to a 1 hour treatment at 98° C. was used. To test the ability of PodA30-162 to degrade PYO in the presence of DNA, genomic DNA (gDNA) from P. aeruginosa PA14 was used in modified versions of previously described assays (59). For experiments using DNA pellets, 0.5 mg of gDNA was pelleted in the presence of 300 mM sodium acetate, pH 5.2 and 70% ethanol. Pellets were washed with 70% ethanol and dried. 200 μL of 800 μM PYO was added to the gDNA pellet without mixing and left to sit at room temperature for 6 hours to allow for diffusion of PYO into the gDNA pellet. The pellet was washed once with 70% EtOH, and submerged in a solution containing 10 mM Tris, pH 7.0 and 40% isopropanol. The pellet remained blue, consistent with an association of PYO with DNA. PodA30-162 was added to the isopropanol solution to a final concentration of 2 μg mL^−1 and left to sit for 3 hours to allow for the reaction to proceed. Tubes were imaged before and after PodA30-162 treatment. […] The PYO gDNA mixture was amended with 1 μg mL^−1 PodA30-162 and loss of PYO was monitored on a BioTek Synergy 4 microplate reader (BioTek) plate reader at 690 nm. Standards were included to quantify PYO loss over time. […]

B1: PodA30-162: truncated pyocyanin demethylase encoded by MFORT_14352 of Mycobacterium fortuitum lacking N-terminal helix, SEQ ID NO: 2 (protein, listed as Mycobacterium fortuitum)
chain: MDGRGGRSTTEPVTMTLDVKNDQVAKHDFGKPGMDVGDMDIFSDILSVDGKQVGYDGGACFFTNVTPDNPMTYCELTIHLDAGEIFARSLTPHTLAPFTMAITGGTGEYANSKGELTVSGVATPDEKYELKLTKAENLYFQ
- demethylation of PYO associated with precipitated DNA: not protected

Reference: patent US12241094B2, “Phenazine degrading agents and related compositions, methods and systems for interfering with viability of bacteria” (priority 2016, dated 2025)
